Values quoted from earlier work in JP2018508186A, “Il−17a結合ポリペプチド” (アフィボディ アクティエボラーグ, priority 2015, dated 2016).

What was measured:
IL-17A [1] = biological target: T1, IL-17A (Homo sapiens, UniProt Q16552); conditions: from WO2006/013107 and WO2012/125680; read-out: IC50, hIL-6 production neutralising activity, reported
IL-17A [2] = biological target: T1, IL-17A; conditions: from WO2006/013107, WO2012/125680, WO2007/070750; read-out: KD for IL-17A, reported

T1 sequence (Q16552 24-155): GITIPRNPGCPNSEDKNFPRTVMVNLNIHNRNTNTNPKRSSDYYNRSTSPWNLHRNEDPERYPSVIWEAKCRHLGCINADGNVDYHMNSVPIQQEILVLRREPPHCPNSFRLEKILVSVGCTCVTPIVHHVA

IC50 (IL-17A [1]) [nM] | Kd (IL-17A [2]) [nM] | Substance
2.1 ± 0.1 | 0.122 | セクキヌマブ: anti-IL-17A monoclonal antibody
 | 0.002 | イキセキズマブ: anti-IL-17A monoclonal antibody
